Experiment [1] deals with HLA-A*02:17. As to the kind of experiment: IEDB peptide-MHC binding, purified MHC/competitive/radioactivity; filed as Kd, often an IC50 or EC50 that approximates it; ≥ and ≤ were set here for values at or beyond the usual limits of such assays.
The target of experiment [2] is HLA-A*32:01. Described as above.
For experiment [3], the target named is HLA-B*35:01. The description is as above. The conditions noted are these: source organism: Dengue virus 3 Singapore/8120/1995.
Experiment [4] deals with HLA-A*02:01. The description is as above.
Experiment [5] addresses HLA-A*02:06. The description is as above.
The target in experiment [6] is HLA-A*02:03. The description is as above.
In experiment [7] the target is HLA-A*69:01. As to the kind of experiment: IEDB peptide-MHC binding, purified MHC/direct/fluorescence; filed as Kd, often an IC50 or EC50 that approximates it; ≥ and ≤ were set here for values at or beyond the usual limits of such assays. The settings on record: source organism: Mycobacterium tuberculosis.
Experiment [8] has as its target HLA-B*08:01. Described as above.
Experiment [9] concerns the target HLA-B*07:02. The experiment is described as above. The conditions noted are these: source organism: Mycobacterium tuberculosis str. Haarlem.
In experiment [10] the target is HLA-B*08:02. The experiment is described as above.
Experiment [11] has as its target HLA-A*03:01. The experiment can be described thus: IEDB peptide-MHC binding, purified MHC/competitive/fluorescence; filed as Kd, often an IC50 or EC50 that approximates it; ≥ and ≤ were set here for values at or beyond the usual limits of such assays.
The target in experiment [12] is HLA-B*18:01. The description is as above.
The target of experiment [13] is HLA-B*57:01. The description is as above.
Experiment [14] addresses HLA-B*15:01. The description is as above.
Experiment [15] addresses HLA-B*51:01. The description is as above.
For experiment [16], the target named is HLA-B*39:01. The description is as above.
Experiment [17] concerns the target HLA-B*58:01. As to the kind of experiment: IEDB peptide-MHC binding, purified MHC/direct/fluorescence; filed as Kd, often an IC50 or EC50 that approximates it; ≥ and ≤ were set here for values at or beyond the usual limits of such assays.
Experiment [18] has as its target HLA-B*15:17. Described as above.
For experiment [19], the target named is HLA-B*57:01. The experiment is described as above.
Experiment [20] deals with HLA-A*69:01. As to the kind of experiment: IEDB peptide-MHC binding, purified MHC/competitive/fluorescence; filed as Kd, often an IC50 or EC50 that approximates it; ≥ and ≤ were set here for values at or beyond the usual limits of such assays. The settings on record: source organism: Homo sapiens.
The target in experiment [21] is HLA-A*26:01. The description is as above. The conditions noted are these: source organism: Homo sapiens.
Experiment [22] has as its target HLA-A*02:01. Described as above.
In experiment [23] the target is HLA-B*46:01. The description is as above. The settings on record: source organism: Homo sapiens.
Experiment [24] deals with HLA-B*27:03. Described as above. The conditions noted are these: source organism: Homo sapiens.
The target in experiment [25] is HLA-A*02:01. As to the kind of experiment: IEDB peptide-MHC binding, purified MHC/direct/fluorescence; filed as Kd, often an IC50 or EC50 that approximates it; ≥ and ≤ were set here for values at or beyond the usual limits of such assays. The conditions noted are these: source organism: Homo sapiens.
Experiment [26] addresses HLA-B*15:17. The experiment can be described thus: IEDB peptide-MHC binding, purified MHC/competitive/fluorescence; filed as Kd, often an IC50 or EC50 that approximates it; ≥ and ≤ were set here for values at or beyond the usual limits of such assays. The conditions noted are these: source organism: Homo sapiens.
Experiment [27] addresses HLA-A*68:02. As to the kind of experiment: IEDB peptide-MHC binding, purified MHC/competitive/radioactivity; filed as Kd, often an IC50 or EC50 that approximates it; ≥ and ≤ were set here for values at or beyond the usual limits of such assays.
For experiment [28], the target named is HLA-A*01:01. The description is as above. The conditions noted are these: source organism: Dengue virus 1 Brazil/97-11/1997.
In experiment [29] the target is HLA-B*08:01. Described as above.
Experiment [30] addresses HLA-B*15:01. Described as above. The settings on record: source organism: Dengue virus 3 Sri Lanka/1266/2000.
[31] abbreviates: source organism: Dengue virus 3 China/80-2/1980.
The mark [32] stands for this setting: source organism: Dengue virus 2 Jamaica/1409/1983.
Setting [33] is: source organism: Dengue virus 3 Martinique/1243/1999.
Where [34] appears, read: source organism: Mycobacterium tuberculosis str. Haarlem.
Setting [35] is: source organism: Human herpesvirus 5 strain Towne.
[36] abbreviates: source organism: Dengue virus 1 Singapore/S275/1990.
Where [37] appears, read: source organism: Dengue virus 1 Brazil/97-11/1997.
[38] abbreviates: source organism: Camelpox virus M-96.
The mark [39] stands for this setting: source organism: Giardia lamblia ATCC 50803.
Where [40] appears, read: source organism: dengue virus type 4.
Setting [41] is: source organism: Orthonairovirus haemorrhagiae.
[42] abbreviates: source organism: Dengue virus 3 Sri Lanka/1266/2000.
Where [43] appears, read: source organism: Mycobacterium tuberculosis C.
The mark [44] stands for this setting: source organism: Dengue virus 4 Philippines/H241/1956.
The mark [45] stands for this setting: source organism: Vibrio parahaemolyticus AQ3810.

Regarding MLWMADVPL, the Kd is 2.72 nM in [1] (setting [31]), 29.1 nM in experiment [2] (source organism: Dengue virus 3 Singapore/8120/1995), 658 nM in experiment [3] and 1.16 nM in [4] (setting [31]).
Take LLLLVAHYA: the Kd in experiment [1] (setting [32]) is 7930 nM; in experiment [4] (setting [32]), 51.9 nM.
As for VLLKTALLIV, the values for the Kd in experiment [1] (setting [31]), in experiment [5] (setting [33]) and in experiment [6] (setting [33]) were 2490 nM, 37 nM and 40.1 nM, respectively.
LPAQLTATA: the Kd was 184 nM in experiment [7], at least 20000 nM in experiment [8] (setting [34]), 441 nM in experiment [9] and at least 20000 nM in experiment [10] (setting [34]).
RWFFRPLRK: in [11] (source organism: Entamoeba dispar SAW760), the Kd was 125 nM.
As to LPLKMLNIPSINVH, the Kd in experiment [12] (setting [35]), in experiment [13] (setting [35]), in experiment [14] (setting [35]), in experiment [15] (setting [35]) and in experiment [16] (setting [35]) was at least 20000 nM throughout.
For the sequence KLVMAFIAFL, the values for the Kd in [1] (setting [36]), in experiment [4] (setting [36]) and in [5] (setting [37]) were 22.4 nM, 28.9 nM and 11.5 nM, respectively.
In the case of KLIEGTNIW, the values for the dissociation constant (Kd) in experiment [17] (setting [38]), in [18] (setting [38]) and in [19] (setting [38]) were 7.7 nM, 67.9 nM and 70.5 nM, respectively.
As to QLAFFVAGK, the Kd in experiment [11] (source organism: Escherichia coli K-12) was 12.8 nM.
YSKVKLLGL: the Kd in experiment [8] (source organism: Orthohantavirus dobravaense) turned out to be 52.5 nM; in [10] (source organism: Kurkino virus), 512 nM.
Regarding VSDFRKEFY, the Kd in experiment [20], in experiment [21], in experiment [22] (source organism: Homo sapiens), in [12] (source organism: Homo sapiens), in experiment [13] (source organism: Homo sapiens) and in [23] was at least 20000 nM in each case. Moreover, the Kd in experiment [14] (source organism: Homo sapiens), in experiment [24], in experiment [15] (source organism: Homo sapiens) and in experiment [16] (source organism: Homo sapiens) was at least 20000 nM throughout.
Turning to VLIRRCHYL, the Kd was 1.5 nM in experiment [25]; at least 20000 nM in experiment [20]; at least 20000 nM in experiment [21]; at least 20000 nM in experiment [12] (source organism: Homo sapiens); at least 20000 nM in experiment [26]; at least 20000 nM in experiment [13] (source organism: Homo sapiens). Further, the Kd in experiment [23], in [14] (source organism: Homo sapiens), in experiment [24], in experiment [15] (source organism: Homo sapiens) and in experiment [16] (source organism: Homo sapiens) was at least 20000 nM each time.
LASSSYEQF: the results for the Kd in experiment [17] (setting [39]), in experiment [18] (setting [39]) and in experiment [19] (setting [39]) were 36.5 nM, 21.8 nM and 188 nM, respectively.
Turning to GLLTVCYVL, the Kd in [1] (setting [32]) turned out to be 802 nM.
Consider KAYAQMWSL, for which the Kd in [18] (setting [40]) was 1.3 nM; in experiment [19] (setting [40]) it was 10.1 nM; in experiment [2] (setting [33]), 24.8 nM; in experiment [5] (setting [33]) it was 27.2 nM.
With LTAAVLMLV, the Kd was determined as 561 nM in [1] (setting [36]); 1.14 nM in experiment [4] (setting [36]); 11.3 nM in experiment [27] (setting [37]); 10.6 nM in [5] (setting [37]); 11.8 nM in [6] (setting [37]); 17700 nM in experiment [28].
Consider LLLLVAHYAI, for which the Kd in experiment [1] (setting [32]) amounted to 434 nM; in experiment [4] (setting [32]), 97.8 nM; in [5] (setting [32]) it was 53.4 nM.
In the case of MIRRRNQIL, the Kd in experiment [8] (setting [41]) was 3 nM; in [10] (setting [41]) it was 843 nM; in experiment [22] (setting [41]) it was at least 20000 nM.
Regarding FAGKTVWFV, the values for the Kd in experiment [1] (setting [42]) and in experiment [5] (setting [33]) were 293 nM and 39.5 nM, respectively.
Turning to YLRRRQKAL, the Kd was 10 nM in [8] (setting [43]) and 1310 nM in experiment [10] (setting [43]).
As to LLAGFMAYMI, the Kd in [1] (setting [44]) came out at 45.7 nM; in experiment [4] (setting [44]), 7.04 nM.
Turning to RVDEIILFH, in experiment [11] (source organism: Trichodesmium erythraeum IMS101), the Kd was 73 nM.
Regarding DLMCHATFTM, the Kd in [1] (setting [32]) is at least 70400 nM; in experiment [4] (setting [32]) it was 209 nM.
On to LMMILPAAL, for which the Kd in [29] (setting [42]) turned out to be 18.1 nM; in [1] (setting [42]) it was 78.4 nM; in [6] (setting [42]), 15.3 nM; in [30], 13.6 nM.
TLLLLGLMIL: the results for the Kd in experiment [29] (setting [33]) and in experiment [1] (setting [31]) were 890 nM and 2420 nM, respectively.
As to LMMMLPATLA, the results for the Kd in experiment [1] (setting [31]), in experiment [4] (setting [31]) and in experiment [6] (setting [31]) were 2880 nM, 13.5 nM and 17.5 nM, respectively.
Consider FMMVLLIPEP, for which the Kd in experiment [1] (setting [31]) amounted to 5730 nM; in [4] (setting [31]), 93.1 nM; in [5] (setting [33]) it was 124 nM.
FSFGDYFKH had a Kd in experiment [11] (source organism: Escherichia coli O157:H7 str. Sakai) of at least 20000 nM.
Turning to KTMAMVLSIV, the Kd in experiment [1] (setting [36]) came to 2860 nM; in experiment [4] (setting [36]), 26.4 nM; in experiment [27] (setting [36]), 52.5 nM; in experiment [5] (setting [36]), 1.96 nM; in [6] (setting [36]), 1.18 nM.
On to QTWKPDDVL, for which the Kd in experiment [17] (source organism: Vibrio parahaemolyticus) was at least 20000 nM; in experiment [18] (setting [45]), 730 nM; in experiment [19] (setting [45]), at least 20000 nM.
Regarding WMTTEDMLTV, the Kd in [1] (setting [31]) is 2240 nM; in experiment [4] (setting [31]), 13.6 nM; in [5] (setting [33]), 8.59 nM; in experiment [6] (setting [33]), 37.5 nM.
